Measurements reported in the supplement of paper PMC9233669.
Variants at the floor of the assay were thinned out.

What was measured:
[1] = system: biotinyl-Val-oxazolone; test: self-aminoacylation, catalytic enhancement (BVO) (fold over background); higher = more active; k-Seq, kA / k0A0; sequences stand for … in GGGAAUGGAUCCACAUCUACGAAUUC…UUCACUGCAGACUUGACGAAGCUG
Summary of the method: (§1)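 Mutagenized RNA pools with a 21-nt variable region (0.43 μM) reacted with each biotinyl-aminoacyl-oxazolone at 2–1250 μM. Reactions ran in 50 μL HEPES/NaCl/KCl/MgCl2/CaCl2 buffer with 5% acetonitrile, pH 6.9–7.0, for 90 minutes at room temperature. Streptavidin-captured RNA was quantified by triplicate qPCR and Illumina sequencing, and per-sequence fraction reacted was fit to a pseudo-first-order model with 1000 bootstraps. Catalytic enhancement is median kA divided by the uncatalyzed rate, the low-activity peak of a bimodal Gaussian fit.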

[2] = system: biotinyl-Met-oxazolone; test: self-aminoacylation, catalytic enhancement (BMO) (fold over background); higher = more active; k-Seq, kA / k0A0; sequences stand for … in GGGAAUGGAUCCACAUCUACGAAUUC…UUCACUGCAGACUUGACGAAGCUG
Summary of the method: as §1

[3] = system: biotinyl-Trp-oxazolone; test: self-aminoacylation, catalytic enhancement (BWO) (fold over background); higher = more active; k-Seq, kA / k0A0; sequences stand for … in GGGAAUGGAUCCACAUCUACGAAUUC…UUCACUGCAGACUUGACGAAGCUG
Summary of the method: as §1

[4] = system: biotinyl-Leu-oxazolone; test: self-aminoacylation, catalytic enhancement (BLO) (fold over background); higher = more active; k-Seq, kA / k0A0; sequences stand for … in GGGAAUGGAUCCACAUCUACGAAUUC…UUCACUGCAGACUUGACGAAGCUG
Summary of the method: as §1

[5] = system: biotinyl-Ile-oxazolone; test: self-aminoacylation, catalytic enhancement (BIO) (fold over background); higher = more active; k-Seq, kA / k0A0; sequences stand for … in GGGAAUGGAUCCACAUCUACGAAUUC…UUCACUGCAGACUUGACGAAGCUG
Summary of the method: as §1

[6] = system: biotinyl-Phe-oxazolone; test: self-aminoacylation, catalytic enhancement (BFO) (fold over background); higher = more active; k-Seq, kA / k0A0; sequences stand for … in GGGAAUGGAUCCACAUCUACGAAUUC…UUCACUGCAGACUUGACGAAGCUG
Summary of the method: as §1

| Sequence | self-aminoacylation [1] | self-aminoacylation [2] | self-aminoacylation [3] | self-aminoacylation [4] | self-aminoacylation [5] | self-aminoacylation [6] |
| --- | --- | --- | --- | --- | --- | --- |
| AUUGACCUAGGUCACCGGGUG [Fam2.2 aminoacylation ribozyme variant] | 4.87 | 4.69 | 6.05 | 6.34 | 4.43 | 29.6 |
| AUUGACCUAGGUCAUCGGGGG [Fam2.2 aminoacylation ribozyme variant] | 3.04 | 3.21 | 3.93 | 4.57 | 3.41 | 12.8 |
| AUUGACCUAGGUCAUCGGGUU [Fam2.2 aminoacylation ribozyme variant] | 6.49 | 13.9 | 12.2 | 18.8 | 7.25 | 98.6 |
| AUUGACCUAGGUCUUCGGGUG [Fam2.2 aminoacylation ribozyme variant] | 3.97 | 4.29 | 4.79 | 4.19 | 3.85 | 19 |
| AUUGACCUAGUUCAUCGGGUG [Fam2.2 aminoacylation ribozyme variant] | 2.59 | 3.19 | 4.08 | 3.62 | 2.62 | 18.6 |
| AUUGACCUGGGUCAUCGGGUG [Fam2.2 aminoacylation ribozyme variant] | 13.5 | 25.9 | 24.1 | 29.6 | 12.2 | 107 |
| AUUGACCUGGUCAUCGAGUGA [Fam2.1 aminoacylation ribozyme variant] | 4.1 | 6.92 | 9.68 | 7.86 | 3.66 | 8.3 |
| AUUGCCCUGGACAUCGAGUGA [Fam2.1 aminoacylation ribozyme variant] | 3.11 | 5.71 | 5.92 | 5.58 | 2.41 | 24.8 |
| AUUGCCCUGGUCAACGAGUGA [Fam2.1 aminoacylation ribozyme variant] | 3.53 | 6.85 | 7.12 | 6.71 | 3.3 | 49.1 |
| AUUGCCCUGGUCAUCGAGGGA [Fam2.1 aminoacylation ribozyme variant] | 2.22 | 3.9 | 3.16 | 3.97 | 1.93 | 4.65 |
| AUUGCCCUGUUCAUCGAGUGA [Fam2.1 aminoacylation ribozyme variant] | 4.12 | 5.44 | 7.43 | 5.81 | 3 | 25.2 |
| AUUGCCCUUGUCAUCGAGUGA [Fam2.1 aminoacylation ribozyme variant] | 3.88 | 7.03 | 8.3 | 7.02 | 3.38 | 42.1 |
| AUUGUCCUAGGUCAUCGGGUG [Fam2.2 aminoacylation ribozyme variant] | 13.6 | 30.2 | 27.1 | 39.1 | 14.2 | 200 |
| AUUUACCAAGGUCAUCGGGUG [Fam2.2 aminoacylation ribozyme variant] | 4.6 | 7.36 | 7.11 | 9.69 | 4.61 | 77.2 |
| AUUUACCCAGGUCAUCGGGUG [Fam2.2 aminoacylation ribozyme variant] | 3.55 | 5.07 | 3.66 | 6.46 | 3.28 | 44.3 |
| AUUUACCUAGCUCAUCGGGUG [Fam2.2 aminoacylation ribozyme variant] | 2.4 | 2.16 | 2.04 | 2.58 | 2.01 | 8.53 |
| AUUUACCUAGGCCAUCGGGUG [Fam2.2 aminoacylation ribozyme variant] | 3.2 | 3.07 | 3.98 | 3.95 | 2.47 | 17.4 |
| AUUUACCUAGGUCAGCGGGUG [Fam2.2 aminoacylation ribozyme variant] | 3.16 | 4.01 | 3.98 | 4.23 | 2.49 | 24.5 |
| AUUUACCUAGGUCAUAGGGUG [Fam2.2 aminoacylation ribozyme variant] | 1.48 | 1.58 | 1.97 | 1.87 | 1.37 | 1.34 |
| AUUUACCUAGGUCAUCCGGUG [Fam2.2 aminoacylation ribozyme variant] | 3.81 | 4.7 | 4.6 | 7.4 | 3.68 | 41.8 |
| AUUUACCUAGGUCAUCGCGUG [Fam2.2 aminoacylation ribozyme variant] | 5.84 | 9.66 | 9.58 | 13.6 | 5.32 | 82.1 |
| AUUUACCUAUGUCAUCGGGUG [Fam2.2 aminoacylation ribozyme variant] | 2.96 | 4.35 | 4.76 | 6.5 | 3.04 | 28 |

| Sequence | self-aminoacylation [1] | self-aminoacylation [2] | self-aminoacylation [3] | self-aminoacylation [4] | self-aminoacylation [5] | self-aminoacylation [6] |
| --- | --- | --- | --- | --- | --- | --- |
| AUUUACGUAGGUCAUCGGGUG [Fam2.2 aminoacylation ribozyme variant] | 3.38 | 3.99 | 3.64 | 3.68 | 2.88 | 25.2 |
| AUUUCCCAGGUCAUCGAGUGA [Fam2.1 aminoacylation ribozyme variant] | 3.4 | 5.06 | 6.32 | 5.63 | 2.89 | 26.3 |
| AUUUCCCUGAUCAUCGAGUGA [Fam2.1 aminoacylation ribozyme variant] | 3.27 | 6.25 | 7.61 | 5.98 | 3 | 18.5 |
| AUUUCCCUGGCCAUCGAGUGA [Fam2.1 aminoacylation ribozyme variant] | 1.95 | 2.45 | 3.3 | 2.78 | 1.72 | 11.7 |
| AUUUCCCUGGUCAUCGAAUGA [Fam2.1 aminoacylation ribozyme variant] | 1.12 | 1.02 | 0.88 | 1.02 | 1.09 | 0.941 |
| AUUUCCCUGGUCAUCGAUUGA [Fam2.1 aminoacylation ribozyme variant] | 1 | 0.986 | 0.985 | 1.06 | 1.07 | 0.598 |
| AUUUCCCUGGUCAUGGAGUGA [Fam2.1 aminoacylation ribozyme variant] | 2.89 | 4.2 | 4.72 | 4.22 | 2.96 | 22 |
| AUUUCCCUGGUGAUCGAGUGA [Fam2.1 aminoacylation ribozyme variant] | 3.15 | 5.5 | 6.58 | 5.66 | 2.77 | 44.4 |
| AUUUCCCUGUUCAUCGAGUGA [Fam2.1 aminoacylation ribozyme variant] | 3.09 | 5.22 | 5.62 | 5.04 | 2.79 | 11.4 |
| AUUUCGCUGGUCAUCGAGUGA [Fam2.1 aminoacylation ribozyme variant] | 3.16 | 4.64 | 5.72 | 5.38 | 2.84 | 28.5 |
| CAACACCUCAAGCAAUCGGUC [Fam1B.1 aminoacylation ribozyme variant] | 0.914 | 1.27 | 0.997 | 1.1 | 0.947 | 1.3 |
| CAACACUUCAAGCAAACGGUC [Fam1B.1 aminoacylation ribozyme variant] | 0.815 | 0.678 | 0.739 | 0.68 | 0.92 | 0.797 |
| CAACACUUCAAGCAAUCCGUC [Fam1B.1 aminoacylation ribozyme variant] | 1.31 | 1.19 | 0.727 | 1.02 | 1.24 | 1.12 |
| CAACACUUCAAGCAAUCGGUA [Fam1B.1 aminoacylation ribozyme variant] | 1.14 | 1.15 | 1.23 | 1.13 | 1.25 | 1.44 |
| CAACACUUCAAGCAAUCGGUU [Fam1B.1 aminoacylation ribozyme variant] | 1.52 | 1.64 | 4.96 | 1.76 | 1.84 | 6.96 |
| CAACACUUCAAGCAAUCUGUC [Fam1B.1 aminoacylation ribozyme variant] | 0.502 | 0.396 | 0.398 | 0.362 | 0.399 | 0.588 |
| CAACACUUCAAGCAAUGGGUC [Fam1B.1 aminoacylation ribozyme variant] | 0.664 | 0.834 | 0.833 | 0.882 | 0.858 | 0.677 |
| CAACACUUCAAGCAAUUGGUC [Fam1B.1 aminoacylation ribozyme variant] | 0.904 | 0.866 | 0.958 | 0.775 | 0.98 | 1.42 |
| CAACCUCAAACAAUCGGUCUG [Fam1A.1 aminoacylation ribozyme variant] | 1.31 | 1.37 | 4.78 | 1.61 | 1.21 | 11.5 |
| CAACUUCAAACAAACGGUCUG [Fam1A.1 aminoacylation ribozyme variant] | 0.946 | 0.945 | 1.04 | 0.995 | 1.07 | 0.948 |
| CAACUUCAAACAAUAGGUCUG [Fam1A.1 aminoacylation ribozyme variant] | 0.919 | 0.997 | 0.98 | 0.884 | 1.03 | 1.41 |
